Measurements reported in publication doi:10.1101/138099 (bioRxiv, 2017).
Positions count from the first letter of the chain named. Names may count otherwise. “And” between values parts separate entries of the source, which are not always exact repeats. Equal entries are not always repeated. Values belong to the molecule of their own block, whether it stands above or below them.

Assays:
[1] = target: YweA_(BslA171-181 C178A), recombinant chimeric protein (Bacillus subtilis) (UniProt P71014); test: non-reducing SDS-PAGE
[2] = target: YweA_(BslA171-181), recombinant chimeric protein (Bacillus subtilis); test: SEC + other: non-reducing SDS-PAGE
[3] = target: YweA_(BslA171-181 C180A), recombinant chimeric protein (Bacillus subtilis) (UniProt P71014); test: non-reducing SDS-PAGE
[4] = target: the molecule itself; test: SEC + other: non-reducing SDS-PAGE
cross-linking = target: the molecule itself; test: cross-linking

stoichiometry N [1]: 2
Molecule: YweA_(BslA171-181 C178A), recombinant chimeric protein (from UniProt P71014 171-181)

stoichiometry N [2]: 2
Molecule: YweA_(BslA171-181), recombinant chimeric protein

stoichiometry N [3]: 2
Molecule: YweA_(BslA171-181 C180A), recombinant chimeric protein (from UniProt P71014 171-181)

B1: Recombinant BslA_(42-181) (domain or fragment, Bacillus subtilis, UniProt P71014 42-181, looked up)
chain: MRTQSTASLFATITGASKTEWSFSDIELTYRPNTLLSLGVMEFTLPSGFTANTKDTLNGNALRTTQILNNGKTVRVPLALDLLGAGEFKLKLNNKTLPAAGTYTFRAENKSLSIGNKFYAEASIDVAKRSTPPTQPCGCN
stoichiometry N [4]: 2 and 4

B2: BslA_(C178A), recombinant BslA_(42-181) variant (domain or fragment, Bacillus subtilis, UniProt P71014 42-181, looked up)
chain: B1 chain with C137A
stoichiometry N [4]: 2

B3: BslA_(C180A), recombinant BslA_(42-181) variant (domain or fragment, Bacillus subtilis, UniProt P71014 42-181, looked up)
chain: B1 chain with C139A
stoichiometry N [4]: 2

B4: BslA, wild type, from the B. subtilis NCIB3610 biofilm (natural protein, UniProt P71014 29-181, looked up)
chain: AESTSTKAHTESTMRTQSTASLFATITGASKTEWSFSDIELTYRPNTLLSLGVMEFTLPSGFTANTKDTLNGNALRTTQILNNGKTVRVPLALDLLGAGEFKLKLNNKTLPAAGTYTFRAENKSLSIGNKFYAEASIDVAKRSTPPTQPCGCN
stoichiometry N (cross-linking): 2 and 4

B5: BslA_(C178A) produced in the B. subtilis bslA deletion strain (NRS5177) (natural protein, Bacillus subtilis, UniProt P71014 29-181, looked up)
chain: B4 chain with C150A
stoichiometry N (cross-linking): 2

B6: BslA_(C180A) produced in the B. subtilis bslA deletion strain (NRS5178) (natural protein, Bacillus subtilis, UniProt P71014 29-181, looked up)
chain: B4 chain with C152A
stoichiometry N (cross-linking): 2
